Assays:
[1] = molecular target: T1, acetylcholinesterase (AChE) (electric eel, UniProt O42275 24-633); test: ELONA; low ionic strength ~0.02 M, no NaCl, 4 mM MgCl2; 8 mM Na2HPO4, 2 mM NaH2PO4, 2.7 mM KCl, 137 mM NaCl, 4 mM MgCl2, pH 7.4, room temperature, 2 h; wells coated with 10 nM AChE, blocked with 1% BSA; washes with 0.05% Tween 20; settings: protein: native; label: 5'-biotin, detected by streptavidin-HRP
[2] = molecular target: T1, acetylcholinesterase (AChE); test: ELONA; selection buffer, ionic strength ~0.15 M, 137 mM NaCl, 4 mM MgCl2; 8 mM Na2HPO4, 2 mM NaH2PO4, 2.7 mM KCl, 137 mM NaCl, 4 mM MgCl2, pH 7.4, room temperature, 2 h; wells coated with 10 nM AChE, blocked with 1% BSA; washes with 0.05% Tween 20; settings: protein: native; label: 5'-biotin, detected by streptavidin-HRP

T1 sequence (O42275 24-633): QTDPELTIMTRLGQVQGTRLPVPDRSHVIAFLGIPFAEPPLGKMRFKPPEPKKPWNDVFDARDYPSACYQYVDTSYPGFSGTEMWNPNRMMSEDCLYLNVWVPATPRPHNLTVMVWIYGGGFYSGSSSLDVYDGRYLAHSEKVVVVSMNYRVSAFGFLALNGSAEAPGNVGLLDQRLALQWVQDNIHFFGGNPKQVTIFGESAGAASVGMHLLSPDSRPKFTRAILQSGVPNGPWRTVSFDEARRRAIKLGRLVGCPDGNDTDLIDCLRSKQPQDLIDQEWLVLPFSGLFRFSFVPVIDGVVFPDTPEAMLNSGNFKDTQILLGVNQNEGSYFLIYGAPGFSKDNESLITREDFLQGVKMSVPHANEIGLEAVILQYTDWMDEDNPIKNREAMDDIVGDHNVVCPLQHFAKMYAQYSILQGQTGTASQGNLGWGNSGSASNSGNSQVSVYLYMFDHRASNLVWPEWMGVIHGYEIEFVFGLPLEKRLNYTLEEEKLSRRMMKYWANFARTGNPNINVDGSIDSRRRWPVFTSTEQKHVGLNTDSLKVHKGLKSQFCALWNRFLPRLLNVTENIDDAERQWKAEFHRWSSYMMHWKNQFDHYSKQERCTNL

B1: R15/19 (also R15/C19) (ssDNA)
DNA: AAGCATCCGCTGGTTGACTGTAGCTCTGGCAGACGTAGTGTGAAGGTACCAGCTATTGGGATCTTGGACCCTGCGAA
modifications: 5'-biotin (ELONA)
[1]
  Kd: 243 ± 47 pM
[2]
  Kd: 157 ± 42 pM

Source: article PMC6271157, “High Efficiency Acetylcholinesterase Immobilization on DNA Aptamer Modified Surfaces”
